Experimental data from US20260152559A1 (Janssen / Centocor, published 2026).
Blank lines part the entries; values can stand above or below the molecule they belong to.

What was measured:
[1] = target: human CD3 on cells (Jurkat cells, primary human T cells) (human) (UniProt P07766); experiment: flow cytometry, 10 nM antibody on Jurkat cells; no-antibody background 2075.61
[2] = target: T1, kallikrein related peptidase 2 (hK2), soluble (human, UniProt P20151 19-261, biotin label in the CAR staining assays (site not stated)); experiment: SPR; bispecific antibody captured on anti-Fc sensor chip, soluble hK2 injected; 1:1 Langmuir fit
T1 construct: also called KLK2; human KLK2 protein
T1 sequence (P20151 19-261): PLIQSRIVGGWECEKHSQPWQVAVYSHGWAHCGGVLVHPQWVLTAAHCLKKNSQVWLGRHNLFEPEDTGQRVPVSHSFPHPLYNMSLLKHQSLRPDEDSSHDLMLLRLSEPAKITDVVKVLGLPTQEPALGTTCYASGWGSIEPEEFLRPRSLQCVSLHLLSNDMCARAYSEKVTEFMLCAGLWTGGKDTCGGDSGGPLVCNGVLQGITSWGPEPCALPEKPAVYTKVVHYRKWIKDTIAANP

[3] = target: hK2 on target cells (VCaP, LNCaP/hK2 and other hK2 positive tumor cells) (human, UniProt P20151 19-261); experiment: cell-based or functional assay
Sequence of hK2 on target cells (VCaP, LNCaP/hK2 and other hK2 positive tumor cells) (P20151 19-261): as above

Sequence of human CD3 on cells (Jurkat cells, primary human T cells) (human) (P07766 23-207 limits assumed): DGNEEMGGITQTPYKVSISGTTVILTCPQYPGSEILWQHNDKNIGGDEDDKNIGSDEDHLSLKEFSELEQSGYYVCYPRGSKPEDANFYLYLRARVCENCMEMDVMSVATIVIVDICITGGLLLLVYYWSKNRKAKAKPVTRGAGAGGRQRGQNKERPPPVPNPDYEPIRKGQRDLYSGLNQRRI

MFI (mean fluorescence index) (arbitrary units) [1]: 89200
Molecule: UCHT1 (antibody)

Kd [2]: 2 nM
B1: KL2B30 Fab arm of an hK2/CD3 bispecific antibody (Table 39) (bispecific antibody)
chain 1: QVQLQESGPGLVKPSETLSLTCTVSGGSISSYYWSWIRQPPGKGLEWIGYIYYSGSTNYNPSLKSRVTISVDTSKNQFSLKLSSVTAADTAVYYCAGTTIFGVVTPNFYYGMDVWGQGTTVTVSSASTKGPSVFPLAPSSKSTSGGTAALGCLVKDYFPEPVTVSWNSGALTSGVHTFPAVLQSSGLYSLSSVVTVPSSSLGTQTYICNVNHKPSNTKVDKKVEPKSCDKTHTCPPCPAPEAAGGPSVFLFPPKPKDTLMISRTPEVTCVVVSVSHEDPEVKFNWYVDGVEVHNAKTKPREEQYNSTYRVVSVLTVLHQDWLNGKEYKCKVSNKALPAPIEKTISKAKGQPREPQVYVLPPSREEMTKNQVSLLCLVKGFYPSDIAVEWESNGQPENNYLTWPPVLDSDGSFFLYSKLTVDKSRWQQGNVFSCSVMHEALHNHYTQKSLSLSPG
chain 2: DIQMTQSPSFLSASVGDRVTITCRASQGISSYLAWYQQKPGKAPKFLIYAASTLQSGVPSRFSGSGSGTEFTLTISSLQPEDFATYYCQQLNSYPLTFGGGTKVEIKRTVAAPSVFIFPPSDEQLKSGTASVVCLLNNFYPREAKVQWKVDNALQSGNSQESVTEQDSKDSTYSLSSTLTLSKADYEKHKVYACEVTHQGLSSPVTKSFNRGEC
chain 3: DIQMTQSPSSLSASVGDRVTITCRARQSIGTAIHWYQQKPGKAPKLLIKYASESISGVPSRFSGSGSGTDFTLTISSLQPEDFATYYCQQSGSWPYTFGQGTKLEIKGGSEGKSSGSGSESKSTGGSEVQLVESGGGLVKPGGSLRLSCAASGFTFSRYNMNWVRQAPGKGLEWVSSISTSSNYIYYADSVKGRFTFSRDNAKNSLDLQMSGLRAEDTAIYYCTRGWGPFDYWGQGTLVTVSSEPKSSDKTHTCPPCPAPEAAGGPSVFLFPPKPKDTLMISRTPEVTCVVVSVSHEDPEVKFNWYVDGVEVHNAKTKPREEQYNSTYRVVSVLTVLHQDWLNGKEYKCKVSNKALPAPIEKTISKAKGQPREPQVYVYPPSREEMTKNQVSLTCLVKGFYPSDIAVEWESNGQPENNYKTTPPVLDSDGSFALVSKLTVDKSRWQQGNVFSCSVMHEALHNHYTQKSLSLSPG

Kd [2]: 0.1 nM
B2: KL2B53 Fab arm of an hK2/CD3 bispecific antibody (Table 39) (bispecific antibody)
chain 1: EVQLVESGGGVVQPGRSLRLSCVASGFTFSSYDIHWVRQAPGKGLEWVAIISYDGSKKDYTDSVKGRFTISRDNSKNTLYLQMDSLRVEDSAVYSCARESGWSHYYYYGMDVWGQGTMVTVSSASTKGPSVFPLAPSSKSTSGGTAALGCLVKDYFPEPVTVSWNSGALTSGVHTFPAVLQSSGLYSLSSVVTVPSSSLGTQTYICNVNHKPSNTKVDKKVEPKSCDKTHTCPPCPAPEAAGGPSVFLFPPKPKDTLMISRTPEVTCVVVSVSHEDPEVKFNWYVDGVEVHNAKTKPREEQYNSTYRVVSVLTVLHQDWLNGKEYKCKVSNKALPAPIEKTISKAKGQPREPQVYVLPPSREEMTKNQVSLLCLVKGFYPSDIAVEWESNGQPENNYLTWPPVLDSDGSFFLYSKLTVDKSRWQQGNVFSCSVMHEALHNHYTQKSLSLSPG
chain 2: DIVMTQSPSSLSASVGDRVTITCRASQDISNYLAWYQQKPGKVPKFLIYAASTLHSGVPSRFSGSGSGTDFTLTISSLQPEDVATYYCQKYNSAPYTFGQGTRLEIKRTVAAPSVFIFPPSDEQLKSGTASVVCLLNNFYPREAKVQWKVDNALQSGNSQESVTEQDSKDSTYSLSSTLTLSKADYEKHKVYACEVTHQGLSSPVTKSFNRGEC
chain 3: B1 chain 3

B3: CAR17 (KL2B413_HL) (other)
chain: EVQLVESGGGLVQPGGSLRLSCAASGFTFSSYWMTWVRQAPGKGLEWVANIKQDGSERYYVDSVKGRFTISRDNAKNSLYLQMNSLRAEDTAVYYCARDQNYDILTGHYGMDVWGQGTTVTVSSGGSEGKSSGSGSESKSTGGSEIVLTQSPSFLSASVGDRVTITCRASQGISSYLSWYQQKPGKAPKLLIYATSTLQSGVPSRFSGSGSGTEFTLTISSLQPEDFATYYCQQLNSYPRTFGQGTKVEIKTSTPAPRPPTPAPTIASQPLSLRPEACRPAAGGAVHTRGLDFACDIYIWAPLAGTCGVLLLSLVITLYCKRGRKKLLYIFKQPFMRPVQTTQEEDGCSCRFPEEEEGGCELRVKFSRSADAPAYKQGQNQLYNELNLGRREEYDVLDKRRGRDPEMGGKPRRKNPQEGLYNELQKDKMAEAYSEIGMKGERRRGKGHDGLYQGLSTATKDTYDALHMQALPPR
tumor cell growth inhibition (TGI) of VCaP cells, IncuCyte killing assay, 96 hours, E:T 1:1 or 0.5:1 [3]: ~100%

B4: CAR20 (KL2B359_LH) (other)
chain: EIVLTQSPATLSLSPGERATLSCRASESVEYFGTSLMHWYQQKPGQPPRLLIYAASNVESGIPARFSGSGSGTDFTLTISSVEPEDFAVYFCQQTRKVPYTFGGGTKVEIKGGSEGKSSGSGSESKSTGGSQVQLQESGPGLVKPSQTLSLTCTVSGNSITSDYAWNWIRQFPGKRLEWIGYISYSGSTTYNPSLKSRVTISRDTSKNQFSLKLSSVTAADTAVYYCATGYYYGSGFWGQGTLVTVSSTSTPAPRPPTPAPTIASQPLSLRPEACRPAAGGAVHTRGLDFACDIYIWAPLAGTCGVLLLSLVITLYCKRGRKKLLYIFKQPFMRPVQTTQEEDGCSCRFPEEEEGGCELRVKFSRSADAPAYKQGQNQLYNELNLGRREEYDVLDKRRGRDPEMGGKPRRKNPQEGLYNELQKDKMAEAYSEIGMKGERRRGKGHDGLYQGLSTATKDTYDALHMQALPPR
tumor cell growth inhibition (TGI) of VCaP cells, IncuCyte killing assay, 96 hours, E:T 1:1 or 0.5:1 [3]: ~100%

B5: CAR19 (KL2B359_HL) (other)
chain: QVQLQESGPGLVKPSQTLSLTCTVSGNSITSDYAWNWIRQFPGKRLEWIGYISYSGSTTYNPSLKSRVTISRDTSKNQFSLKLSSVTAADTAVYYCATGYYYGSGFWGQGTLVTVSSGGSEGKSSGSGSESKSTGGSEIVLTQSPATLSLSPGERATLSCRASESVEYFGTSLMHWYQQKPGQPPRLLIYAASNVESGIPARFSGSGSGTDFTLTISSVEPEDFAVYFCQQTRKVPYTFGGGTKVEIKTSTPAPRPPTPAPTIASQPLSLRPEACRPAAGGAVHTRGLDFACDIYIWAPLAGTCGVLLLSLVITLYCKRGRKKLLYIFKQPFMRPVQTTQEEDGCSCRFPEEEEGGCELRVKFSRSADAPAYKQGQNQLYNELNLGRREEYDVLDKRRGRDPEMGGKPRRKNPQEGLYNELQKDKMAEAYSEIGMKGERRRGKGHDGLYQGLSTATKDTYDALHMQALPPR
tumor cell growth inhibition (TGI) of VCaP cells, IncuCyte killing assay, 96 hours, E:T 1:1 or 0.5:1 [3]: ~100%
